Data published in patent publication US20140087995A1 (published 2014).
Numbered stars: 1 amine (or outer) side, 2 acyl side, 3 side chain; on linkers, the order of the positions; unused ones are H or OH. Bridge positions count the residues as written; N and C are the ends. Side chains are listed from the residue outwards. Ends that are not written are not given here. * marks the point of attachment. C20 diacid = O=C(O)CCCCCCCCCCCCCCCCCCC(=O)*; γGlu = O=C(O)[C@H](CCC(=O)[*:2])N[*:1]

T1: human calcitonin receptor (human, UniProt P30988 25-474)
T1 construct: whole, on cells; Used as cell membranes prepared from the transfected BHK cells (Assay VII), not as intact cells; also called hCTR; hCT
T1 sequence (looked up): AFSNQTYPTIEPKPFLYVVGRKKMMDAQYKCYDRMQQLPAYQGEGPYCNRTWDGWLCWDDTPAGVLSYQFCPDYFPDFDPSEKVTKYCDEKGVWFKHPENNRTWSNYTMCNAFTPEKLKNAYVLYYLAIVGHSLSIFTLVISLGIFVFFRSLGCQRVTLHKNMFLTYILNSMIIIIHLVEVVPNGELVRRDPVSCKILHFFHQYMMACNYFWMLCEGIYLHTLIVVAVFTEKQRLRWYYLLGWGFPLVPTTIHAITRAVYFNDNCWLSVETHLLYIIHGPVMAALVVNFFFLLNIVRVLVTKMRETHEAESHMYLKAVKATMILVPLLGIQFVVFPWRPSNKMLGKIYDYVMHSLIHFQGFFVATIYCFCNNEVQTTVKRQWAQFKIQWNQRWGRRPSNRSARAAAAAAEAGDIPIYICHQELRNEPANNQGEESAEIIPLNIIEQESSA


Molecular target: T1, human calcitonin receptor
Assay: SPA competition against 125I-calcitonin, membranes with human calcitonin receptor (Assay VII)
Procedure: Membranes were prepared in the following way; the cells were rinsed with PBS and incubated with Versene for approximately 5 min before harvesting. The cells were flushed with PBS and the cell-suspension was centrifuged for 5 min at 1000 rpm. Cells were homogenized (Ultrathurrax) in a buffer containing 20 mM Na-HEPES and 10 mM EDTA (pH 7.4) and centrifuged at 20.000 rpm for 15 min. The resulting pellet was resuspended, homogenized and centrifuged (20.000 rpm, 15 min) in a buffer containing 20 mM Na-HEPES and 0.1 mM EDTA (pH 7.4, buffer 2). The resulting pellet was resuspended in buffer 2 and protein concentration was measured (BCA protein Assay, Pierce). The homogenate was kept cold during the whole procedure. The membranes were kept at −80° C. until use. Assay was performed in a 384 well Optiplate (PerkinElmer) in a total volume of 40 ul. Membranes were mixed with SPA beads. Final concentration of membranes 35 ng/μL final and Final concentration of SPA beads was 0.05 mg/well. Test-compounds were dissolved in DMSO and further diluted in assay buffer (50 mM Hepes, pH 7.4, 1 mM CaCl2, 5 mM MgCl₂, 0.1% OA and 0.02% Tween20). […] The final mixture was incubated for 120 min with shaking at 400 rpm at 25° C. prior to centrifugation (1500 rpm, 10 min). Samples were analyzed on TopCounter™ (Packard). The […] was calculated using (one site binding competition analysis) GraphPad Prism5 as a measure of receptor affinity.

Row | Binder | IC50 [nM]
1 | K([γGlu-γGlu-C20 diacid])CNTATCATQRLADFLRHSSPNFGAPLSSTNVGSDTY-NH2 (disulfide 2-7; N-terminus assumed; SMILES CC(C)C[C@H](NC(=O)[C@H](CCCNC(=N)N)NC(=O)[C@H](CCC(N)=O)NC(=O)[C@@H](NC(=O)[C@H](C)NC(=O)[C@@H]1CSSC[C@H](NC(=O)[C@@H](N)CCCCNC(=O)CC[C@H](NC(=O)CC[C@H](NC(=O)CCCCCCCCCCCCCCCCCCC(=O)O)C(=O)O)C(=O)O)C(=O)N[C@@H](CC(N)=O)C(=O)N[C@@H]([C@@H](C)O)C(=O)N[C@@H](C)C(=O)N[C@@H]([C@@H](C)O)C(=O)N1)[C@@H](C)O)C(=O)N[C@@H](C)C(=O)N[C@@H](CC(=O)O)C(=O)N[C@@H](Cc1ccccc1)C(=O)N[C@@H](CC(C)C)C(=O)N[C@@H](CCCNC(=N)N)C(=O)N[C@@H](Cc1c[nH]cn1)C(=O)N[C@@H](CO)C(=O)N[C@@H](CO)C(=O)N1CCC[C@H]1C(=O)N[C@@H](CC(N)=O)C(=O)N[C@@H](Cc1ccccc1)C(=O)NCC(=O)N[C@@H](C)C(=O)N1CCC[C@H]1C(=O)N[C@@H](CC(C)C)C(=O)N[C@@H](CO)C(=O)N[C@@H](CO)C(=O)N[C@H](C(=O)N[C@@H](CC(N)=O)C(=O)N[C@H](C(=O)NCC(=O)N[C@@H](CO)C(=O)N[C@@H](CC(=O)O)C(=O)N[C@H](C(=O)N[C@@H](Cc1ccc(O)cc1)C(N)=O)[C@@H](C)O)C(C)C)[C@@H](C)O, also called compound 1) | 32.5
2 | K([γGlu-γGlu-C20 diacid])CNTATCATQRLADFLRHSSPNFGAIPSSTNVGSRTY-NH2 (disulfide 2-7; N-terminus assumed; SMILES CC[C@H](C)[C@H](NC(=O)[C@H](C)NC(=O)CNC(=O)[C@H](Cc1ccccc1)NC(=O)[C@H](CC(N)=O)NC(=O)[C@@H]1CCCN1C(=O)[C@H](CO)NC(=O)[C@H](CO)NC(=O)[C@H](Cc1c[nH]cn1)NC(=O)[C@H](CCCNC(=N)N)NC(=O)[C@H](CC(C)C)NC(=O)[C@H](Cc1ccccc1)NC(=O)[C@H](CC(=O)O)NC(=O)[C@H](C)NC(=O)[C@H](CC(C)C)NC(=O)[C@H](CCCNC(=N)N)NC(=O)[C@H](CCC(N)=O)NC(=O)[C@@H](NC(=O)[C@H](C)NC(=O)[C@@H]1CSSC[C@H](NC(=O)[C@@H](N)CCCCNC(=O)CC[C@H](NC(=O)CC[C@H](NC(=O)CCCCCCCCCCCCCCCCCCC(=O)O)C(=O)O)C(=O)O)C(=O)N[C@@H](CC(N)=O)C(=O)N[C@@H]([C@@H](C)O)C(=O)N[C@@H](C)C(=O)N[C@@H]([C@@H](C)O)C(=O)N1)[C@@H](C)O)C(=O)N1CCC[C@H]1C(=O)N[C@@H](CO)C(=O)N[C@@H](CO)C(=O)N[C@H](C(=O)N[C@@H](CC(N)=O)C(=O)N[C@H](C(=O)NCC(=O)N[C@@H](CO)C(=O)N[C@@H](CCCNC(=N)N)C(=O)N[C@H](C(=O)N[C@@H](Cc1ccc(O)cc1)C(N)=O)[C@@H](C)O)C(C)C)[C@@H](C)O, also called compound 52) | 56.9
3 | K([γGlu-γGlu-C20 diacid])CNTATCATQRLADFLRHSSPNFGAIPSSTNVGSDTY-NH2 (disulfide 2-7; N-terminus assumed; SMILES CC[C@H](C)[C@H](NC(=O)[C@H](C)NC(=O)CNC(=O)[C@H](Cc1ccccc1)NC(=O)[C@H](CC(N)=O)NC(=O)[C@@H]1CCCN1C(=O)[C@H](CO)NC(=O)[C@H](CO)NC(=O)[C@H](Cc1c[nH]cn1)NC(=O)[C@H](CCCNC(=N)N)NC(=O)[C@H](CC(C)C)NC(=O)[C@H](Cc1ccccc1)NC(=O)[C@H](CC(=O)O)NC(=O)[C@H](C)NC(=O)[C@H](CC(C)C)NC(=O)[C@H](CCCNC(=N)N)NC(=O)[C@H](CCC(N)=O)NC(=O)[C@@H](NC(=O)[C@H](C)NC(=O)[C@@H]1CSSC[C@H](NC(=O)[C@@H](N)CCCCNC(=O)CC[C@H](NC(=O)CC[C@H](NC(=O)CCCCCCCCCCCCCCCCCCC(=O)O)C(=O)O)C(=O)O)C(=O)N[C@@H](CC(N)=O)C(=O)N[C@@H]([C@@H](C)O)C(=O)N[C@@H](C)C(=O)N[C@@H]([C@@H](C)O)C(=O)N1)[C@@H](C)O)C(=O)N1CCC[C@H]1C(=O)N[C@@H](CO)C(=O)N[C@@H](CO)C(=O)N[C@H](C(=O)N[C@@H](CC(N)=O)C(=O)N[C@H](C(=O)NCC(=O)N[C@@H](CO)C(=O)N[C@@H](CC(=O)O)C(=O)N[C@H](C(=O)N[C@@H](Cc1ccc(O)cc1)C(N)=O)[C@@H](C)O)C(C)C)[C@@H](C)O, also called compound 2) | 19.5
4 | K([γGlu-γGlu-C20 diacid])CNTATCATQRLADFLRHSSNPFGAPLSSTNVGSDTY-NH2 (disulfide 2-7; N-terminus assumed; SMILES CC(C)C[C@H](NC(=O)[C@H](CCCNC(=N)N)NC(=O)[C@H](CCC(N)=O)NC(=O)[C@@H](NC(=O)[C@H](C)NC(=O)[C@@H]1CSSC[C@H](NC(=O)[C@@H](N)CCCCNC(=O)CC[C@H](NC(=O)CC[C@H](NC(=O)CCCCCCCCCCCCCCCCCCC(=O)O)C(=O)O)C(=O)O)C(=O)N[C@@H](CC(N)=O)C(=O)N[C@@H]([C@@H](C)O)C(=O)N[C@@H](C)C(=O)N[C@@H]([C@@H](C)O)C(=O)N1)[C@@H](C)O)C(=O)N[C@@H](C)C(=O)N[C@@H](CC(=O)O)C(=O)N[C@@H](Cc1ccccc1)C(=O)N[C@@H](CC(C)C)C(=O)N[C@@H](CCCNC(=N)N)C(=O)N[C@@H](Cc1c[nH]cn1)C(=O)N[C@@H](CO)C(=O)N[C@@H](CO)C(=O)N[C@@H](CC(N)=O)C(=O)N1CCC[C@H]1C(=O)N[C@@H](Cc1ccccc1)C(=O)NCC(=O)N[C@@H](C)C(=O)N1CCC[C@H]1C(=O)N[C@@H](CC(C)C)C(=O)N[C@@H](CO)C(=O)N[C@@H](CO)C(=O)N[C@H](C(=O)N[C@@H](CC(N)=O)C(=O)N[C@H](C(=O)NCC(=O)N[C@@H](CO)C(=O)N[C@@H](CC(=O)O)C(=O)N[C@H](C(=O)N[C@@H](Cc1ccc(O)cc1)C(N)=O)[C@@H](C)O)C(C)C)[C@@H](C)O, also called compound 3) | 19.5
5 | {C20 diacid-γGlu}-KCNTATCATQRLAEFLRHSSPNFGAIPSSTNVGKNTY-NH2 (disulfide 2-7; SMILES CC[C@H](C)[C@H](NC(=O)[C@H](C)NC(=O)CNC(=O)[C@H](Cc1ccccc1)NC(=O)[C@H](CC(N)=O)NC(=O)[C@@H]1CCCN1C(=O)[C@H](CO)NC(=O)[C@H](CO)NC(=O)[C@H](Cc1c[nH]cn1)NC(=O)[C@H](CCCNC(=N)N)NC(=O)[C@H](CC(C)C)NC(=O)[C@H](Cc1ccccc1)NC(=O)[C@H](CCC(=O)O)NC(=O)[C@H](C)NC(=O)[C@H](CC(C)C)NC(=O)[C@H](CCCNC(=N)N)NC(=O)[C@H](CCC(N)=O)NC(=O)[C@@H](NC(=O)[C@H](C)NC(=O)[C@@H]1CSSC[C@H](NC(=O)[C@H](CCCCN)NC(=O)CC[C@H](NC(=O)CCCCCCCCCCCCCCCCCCC(=O)O)C(=O)O)C(=O)N[C@@H](CC(N)=O)C(=O)N[C@@H]([C@@H](C)O)C(=O)N[C@@H](C)C(=O)N[C@@H]([C@@H](C)O)C(=O)N1)[C@@H](C)O)C(=O)N1CCC[C@H]1C(=O)N[C@@H](CO)C(=O)N[C@@H](CO)C(=O)N[C@H](C(=O)N[C@@H](CC(N)=O)C(=O)N[C@H](C(=O)NCC(=O)N[C@@H](CCCCN)C(=O)N[C@@H](CC(N)=O)C(=O)N[C@H](C(=O)N[C@@H](Cc1ccc(O)cc1)C(N)=O)[C@@H](C)O)C(C)C)[C@@H](C)O, also called compound 36) | 6.3
6 | {C20 diacid-γGlu}-KCNTATCATQRLAEFLRHSSPNFGPILPPTNVGSNTY-NH2 (disulfide 2-7; SMILES CC[C@H](C)[C@H](NC(=O)[C@@H]1CCCN1C(=O)CNC(=O)[C@H](Cc1ccccc1)NC(=O)[C@H](CC(N)=O)NC(=O)[C@@H]1CCCN1C(=O)[C@H](CO)NC(=O)[C@H](CO)NC(=O)[C@H](Cc1c[nH]cn1)NC(=O)[C@H](CCCNC(=N)N)NC(=O)[C@H](CC(C)C)NC(=O)[C@H](Cc1ccccc1)NC(=O)[C@H](CCC(=O)O)NC(=O)[C@H](C)NC(=O)[C@H](CC(C)C)NC(=O)[C@H](CCCNC(=N)N)NC(=O)[C@H](CCC(N)=O)NC(=O)[C@@H](NC(=O)[C@H](C)NC(=O)[C@@H]1CSSC[C@H](NC(=O)[C@H](CCCCN)NC(=O)CC[C@H](NC(=O)CCCCCCCCCCCCCCCCCCC(=O)O)C(=O)O)C(=O)N[C@@H](CC(N)=O)C(=O)N[C@@H]([C@@H](C)O)C(=O)N[C@@H](C)C(=O)N[C@@H]([C@@H](C)O)C(=O)N1)[C@@H](C)O)C(=O)N[C@@H](CC(C)C)C(=O)N1CCC[C@H]1C(=O)N1CCC[C@H]1C(=O)N[C@H](C(=O)N[C@@H](CC(N)=O)C(=O)N[C@H](C(=O)NCC(=O)N[C@@H](CO)C(=O)N[C@@H](CC(N)=O)C(=O)N[C@H](C(=O)N[C@@H](Cc1ccc(O)cc1)C(N)=O)[C@@H](C)O)C(C)C)[C@@H](C)O, also called compound 6) | 19.9
